2 variants from IntAct's records for PubMed 15378002 can be followed below.

B1: Serine/threonine-protein kinase VRK1 (Homo sapiens), Q99986 (parent)
chain: MPRVKAAQAGRQSSAKRHLAEQFAVGEIITDMAKKEWKVGLPIGQGGFGCIYLADMNSSESVGSDAPCVVKVEPSDNGPLFTELKFYQRAAKPEQIQKWIRTRKLKYLGVPKYWGSGLHDKNGKSYRFMIMDRFGSDLQKIYEANAKRFSRKTVLQLSLRILDILEYIHEHEYVHGDIKASNLLLNYKNPDQVYLVDYGLAYRYCPEGVHKEYKEDPKRCHDGTIEFTSIDAHNGVAPSRRGDLEILGYCMIQWLTGHLPWEDNLKDPKYVRDSKIRYRENIASLMDKCFPEKNKPGEIAKYMETVKLLDYTEKPLYENLRDILLQGLKAIGSKDDGKLDLSVVENGGLKAKTITKKRKKEIEESKEPGVEDTEWSNTQTEEAIQTRSRTRKRVQK
B2: Transcription factor Jun (Homo sapiens), P05412 (parent)
chain: MTAKMETTFYDDALNASFLPSESGPYGYSNPKILKQSMTLNLADPVGSLKPHLRAKNSDLLTSPDVGLLKLASPELERLIIQSSNGHITTTPTPTQFLCPKNVTDEQEGFAEGFVRALAELHSQNTLPSVTSAAQPVNGAGMVAPAVASVAGGSGSGGFSASLHSEPPVYANLSNFNPGALSSGGGAPSYGAAGLAFPAQPQQQQQPPHHLPQQMPVQHPRLQALKEEPQTVPEMPGETPPLSPIDMESQERIKAERKRMRNRIAASKCRKRKLERIARLEEKVKTLKAQNSELASTANMLREQVAQLKQKVMNHVNSGCQLMLTQQLQTF
partner: B1 chain

In the first test the parent is B1. Particulars: with jun_human JUN, P05412.
With K179E, the “effect of a mutation on the interaction” value is recorded as “disrupting interaction”.

Variants of B2 are the subject of the next test. The following applies: with vrk1_human VRK1, Q99986.
Turning to S63A;S73A, the “effect of a mutation on the interaction” value was “decreasing interaction”.
